Experimental data as given in the DeepSol protein solubility set.

Test: soluble on expression in E. coli; label from the status in PepcDB or PDB records

Row | Sequence | soluble on expression in E. coli
1 | MSVVISGALTDGAGIPMSGYHIILKSRVNTPEVVMNTVADVMTGNDGEYCFHARTGKYGVYLKQDWRNEYNVGDIAVYEDSKPGTLNDFLIAPDEGDLKPDVVKRFEEMVAQAQQSAGAAAGNAQQTAQDVAAAAGYARAAEQAKNDIDAALTGTLKTANHLSETAAAGEKAQQKSRDNLGLKSAATMEAQSDIYDRTKGRLAIPGAFGFGCAFLPEDVIRFDTKSDFLAWVRNALPGEYSVAGPYGIIIPDTRFEGVLSIRWTDARPETTEPRYRAKSLTFYGINGPIYHTRYRYWPISRLTDWVKINITTEDIIYRIVASSVRNRWGDPDIGGLIIAAYQGEADGDKVIRLVRGQSYRGSRLGPVGISVPSTPTGTYIASPQFFITGCSEHSLPGSYCALSGVPDAHVSGAMPGLFIRTS | not soluble
2 | MSWIYDAHIHLSDPEYKSDIDMILNYMDLLKIKACCVSMDIETSNETMALYEKSKNVLPFIGIHPEMAQKSSEPVYELIEKNNEIISGIGEIGLDRTYINSEDEWEIQKDVFSKQLSLAEKFNKPVSIHSRKTLSDIFEILPSYKIPGILLHWFDGNKSQLKTAMENEYFVSYGPLLVYANDKQVLLSKTDPSRLLVETDGPVRFSHCFEYKTTEIMFVPSVLFCASKILHTSYENLLTQIEDNSKKFLGI | soluble
3 | MSYDICIIGSGAGASPIAHQLSKAGAKVLVLEKGPWLTEKEFFKDELTISIHDAYNPKLTDEQHVIEEEYFDENDKPFWQGEKTSDSGWSWWNGNVVGGSSNFMSGYFHRLKPIDFRLKSEFGAISGANVEDWPISYDELEPYYAKVEREVGVSGRVVEHPHQEPRSTDFPYPPIAELPMSSWIDKAAQKIGYHAIPVPRAILSKPAMGRRSCEYSGYCSSYGCASGAKGSGRAALLNNAVASGNCTIQANAKVYKIATDKQGEITGVHYYDKIGRKKSVTAKIYVVACQAVETSRLLLASTGEKFPQGLANNNGQVGKNLLFSGGGTGQGDFNYADLSDKQVGELKQVGPFINRALQDWYQIADKSFTGANAKGQAKGGTIDFLFHQNPIARARGTQWGSDQNGDDKLLWGEDLKQSLKTEFTSYKTLRFEVFNDWLPTDDCFVSLDNEVTDQWGDPVAKVRIGYHDHDLEVGEYLSKKAEKLLEALGAKNVSSSVSGYPSTNLMAGGCRFGNDPKTSVLNKTCQAHEVDNLYVTDGSFMPTGGSVPYTFTIYANAFRVADKIKAHWLTLKSLEHHHHHH | not soluble
4 | MSYEKEFLKDFEDWVKTQIQVNQLAMATSQEVAQEDGDERAKDAFIRYESKLDAYEFLLGKFDNYKNGKAFHDIPDELFGARHY | soluble
5 | MTAAEHGLHAPAYAWSHNGPFETFDHASIRRGYQVYREVCAACHSLDRVAWRTLVGVSHTNEEVRNMAEEFEYDDEPDEQGNPKKRPGKLSDYIPGPYPNEQAARAANQGALPPDLSLIVKARHGGCDYIFSLLTGYPDEPPAGVALPPGSNYNPYFPGGSIAMARVLFDDMVEYEDGTPATTSQMAKDVTTFLNWCAEPEHDERKRLGLKTVIILSSLYLLSIWVKKFKWAGIKTRKFVFNPPKPRK | soluble
6 | MTAEVTAADAEVLLAQPRGFCAGVDRAIDIVERALELHGAPIYVRHEIVHNRYVVEDLRGKGAVFIDELDQAPAGAIVVFSAHGVSQAVRGEAEARGLRVFDATCPLVTKVHIEVARMRAAGREIVMIGHKGHPEVEGTLGQAQGGMYLVETVEDVAALQVSDPGNLAYVTQTTLSVDDAAAVAGALKARFPGIVEPKKSDICYATQNRQDAVKLLAPECDLVLVVGSTNSSNSNRLREVAERKGVAAYLIDGAHAIDPAWLQGRRSIGITAGASAPEVLVQQVVERVRELGAVSVRTMPGLEESVAFPLPKGLSRKIAQTESLEAAALEHHHHHH | not soluble
7 | MTAHFRPAVYDLPRDGHTVFRWEHPPQQATVELERLQRKQSLAAAFRVFARLGFDMGGAGHITVRDPGRPDHFWVNPVGVYFGHVRVRDLLLVNPEGAVIEGEGALNLAAFAIHAALHEAHPEVVAAAHAHSLYGKAWSSLGRLLDPLTQDACAFYERHGLFDNFSGVVLEASEGVRIAAALAGRKALILQNHGLLTVGETVEAAVWRFIAMDNAAQTQLLAEAAGTPRPIPHEVARHTARQVGTEFGGWFSFQPYRERIVREEPDFLDLEHHHHHH | not soluble
8 | MTAHLAAINGLRLKAECSNCGVRELCLSVGMSLTDTDRLSAIIPQPIKVKKGAALYHAGDPLQSLYAVRFGFFKTTISSQDGRDQLTGFQMSGELLGCDAISNDCHVCDAIALEDSEVCPIRFTHLERLSREMPSLQHNLNRALSKEIVRDHEMLLLLGNLNAEERMAAFLLNLSGRMFNRGYSATAFVLRMTREDIGSYLGLRLETICRAIANLRNLRIVSISGRQVEILDLNRLQALIHGCSYRAKSL | not soluble
9 | MTAPHDVPDLTGSGEYLVPDVLQPGLTLVLVGTAPSGISARARAYYANPENKFWRTLHAVGLTPRQLVPQEYATLPQYGLGLTDVAKRHSGVDAALPGEAWRPDELRRKVEHYRPRIVAFTSKRGASETLGVPTGKLPYGPQPQPLDWPAETELWVLPSTSPLGHNHFRLEPWQALGDRVRELRGAAEAGNPSPETPVL | soluble
10 | MTARDDETIAFYSGHATAYTSRGQAPDRPHLETFLARLRAGAKILELGCGGGQDSEYMLSAGFDVHPTDGTPDIAKAAQARLGIPVRTLLFENIEDAALYDAVWANACLLHVPRLALPGIIGRIHTALKPGGVFYASFKAGEVEGRDTFGRYYNYPSKAWLEETYGQFAWTEVEIEARQGSGYDKLPTDWLHVTATKA | soluble
11 | MTARVIALDLDGTLLTPHKTLLPSSLEALSRAKEAGFQLIIVTGRHHVAIHPFYQALALETPAICCNGTYLYDYQAKTVLDADPMPVDKALQLIDLLDEHQIHGLMYVDDAMLYEHPTGHVVRTSRWAQTLPPEQRPTFTQVSSLAQAARDVNAVWKFALTDEDIPRLQRFGQHVEQALGLECEWSWHDQVDIARKGNSKGKRLTQWIEAQGGSMKNVIAFGDNYNDISMLEAAGTGVAMGNADEAVKARADVVIGDNTTDSIAKFIYTHLL | not soluble
12 | MTASFPTRVYLLRHAKAAWAAPGERDFDRGLNEAGFAEAEIIADLAADRRYRPDLILSSTAARCRQTTQAWQRAFNEGIDIVYIDEMYNARSETYLSLIAAQTEVQSVMLVGHNPTMEATLEAMIGEDLLHAALPSGFPTSGLAVLDQDDSAASGKNRWRLIDFLAPGK | soluble
13 | MTATITNKKSCSGSVEAGKTRLTTEWKPESQVPQYVKNELSKPHPNYILAFLNVVQQLKIQRRTGYLDLGIKECESISDHMYRLSIITMLIKDSRVNRDKCVRIALVHDIAESLVGDITPVDPIGKEEKHRREWETIKYLCNALIKPYNEIAAKEIMDDWLAYENVTSLEARYVKDIDKYEMLVQCFEYEREYKGTKNFDDFFGAVASIKTDEVKGWTSDLVVQRQKYFADLTQSITK | soluble
14 | MTATPEVQKSIEEVYTKLQGASDCSSLLKKHLTKDVVAKNKSKKTRLGATLLDVIQSGGENLDSGVGIYAPDAESYTLFADLFNPVIEEYHNGFKATDTQPAMDLGEKNVGELADLDPEGKFIVSTRIRCGRSLQGYPFNPCLSETNYKMMETRMKEIFNSITDPELKGTYYPLTGMDEETKKKLIADHFLFKEGDRFLKAANANRYWPNGRGIFHNEKKTFLVWVNEEDHLRIISMQNGGNVGEVLARLIKGLNLVAAKAPFARHPRLGWLTFCPTNLGTTVRASVHIKLPKISAKDDFKKICSDMKLQIRGIHGEHSESKEGIYDISNKQRLGLTEYQAVRQMYDGLKKLIELEKAAA | not soluble
15 | MTATQGKCPVMHGGATTVNISTAEWWPKALNLDILSQHDRKTNPMGPDFNYQEEVQKLDAALKQDLQALMTDSQDWWPADWGHYGGLMIRLTWHAAGTYRIADGRGGAGTGNQRFAPLNSWPDNTNLDKARRLLWPIKQKYGNKLSWADLIAYAGTIAYESMGLKTFGFAFGREDIWHPEKDIYWGPEKEWFPPSTNPNSRYTGDRELENPLAAVTMGLIYVNPEGVDGNPDPLKTAHDVRVTFARMAMNDEETVALTAGGHTVGKCHGNGNAALLGPEPEGADVEDQGLGWINKTQSGIGRNAVTSGLEGAWTPHPTQWDNGYFAVCSLNYDWELKKNPAGAWQWEPINPREEDLPVDVEDPSIRRNLVMTDADMAMKMDPEYRKISERFYQDPAYFADVFARAWFKLTHRDMGPKARYIGPDVPQEDLIWQDPIPAGNRNYDVQAVKDRIAASGLSISELVSTAWDSARTYRNSDKRGGANGARIRLAPQKDWEGNEPDRLPKVLAVLEGISAATGATVADVIVLAGNVGVEQKARAAGVEIVLPFAPGRGDATAEQTDTESFAVLEPIHDAIATGSSRTMRQRLKNCCLIATQLLGLTAPEMTVLIGGLRVLGTNHGGTKHVVFTDREGVLTNDFFVNLTDMNYLWKPAGKNLYEICDRKTNQVKWTATRVDLVFGSNSILRAYSELYAQDDNKEKFVRDFVAAWTKVMNADRFDLD | soluble
16 | MTDFDIDTSAANYADELALLGVTGAMSYAPKGTQMPETIAPLNPPFVDFGWLSDGGITESQNEERNDWTPFQSTNPIRGQVTKQDFQFKTVVWSISGLANAMYYGVPESDMRFDQETGVTTFEQGKELPPDFKFGLVVDIVDGGKARRHCMPNVSVVERGDIVYSKDDLVGYEMTFRASYDPVAGYAVRRMFKEGWKPGHAGTTLADENKDASLGDWSNTLDESEVRKQSKTVTLPKGATGGTFTVSINGKASAAINHDATGTAMKLVLNKVDGGESAKVTGRAGGPYTITGVEGEITADGTNLTGSDTQDISIN | not soluble
17 | MTDKKPVIVYGVSGYTGRLVCEYLREFNIPFIAAGRDKKRIQEVLDRIPGLDTVDHEVVEVEHTVPALTELFSGARVVSNMVGPFIKHGAIVVEAALAAGCHYTDTTGEQDWVLDVQAKFGEKFAEKGLLLSPGVAQMYTTGEIAANIAL | not soluble
18 | MTDLPLTGRARPDRRPHTLAEWRAEGGYEAVDRARSMAPAEIIDMVEAAHLNGRGGAGFPAGRKWRFMPERGTSPGEGPSYLIVNGDEMEPGAFKDRFLLEALPHQVIEGAIITARATHADEAIVLIRDEYRPGIAAVERAIHEARDAGLLGDLAIRVHPSAGRYIVGEETALITALEGHRAVPRKRPPFPAQSGLWGRPTTVNNVETISLVPHILSLGPQRFRALSRTEEGGTKLYGVSGRVKRPGLFEAPMGTTARELIERAGGVSGDGQLRAFQPGGGASGFFGPDRLDLPLDFGHVAKAGSMFGTGMLIVLDGTACPVGFLARHMRFYARESCGWCTPCREGLPLVAKILDRFAAGQGRRADLELLQMTAAEAAPRGRSFCDLMGGAMAPLASGLSMFAAEFEARLAEGERALEHHHHHH | not soluble
19 | MTDTRASAHLYPAHDLAVCTDAGSAVERITAIYDRSAQAIRARFHAFARGEALDDDTPACYPYLGITVDPKTLVSDARPSWGTVAYPGVYGTTLTRPDLFREYYRVQIERLLHYHNSPVVVGVSNRPIPLPFVVEASTIDITPEQARALGGAFPLPDLAQIDDAIANGTYRPADNEPQPLSMFTAERVDLALQRLYHYTATHPKHFQRFVLFTNYQRYVDEFAALGRKLMEEGNDEGYVRFVEPGDTVHELGTPAPDDSHRIKGLPQMPAYHLVREDRLGVTLVNIGVGPSNAKTITDHLAVLRPHCWMMIGHCGGLRRSQQLGDYVLAHAYVRDDHVLDQDLPPWVPVPPIAEIQVALQEAVARITGLSGSDMKSRMRTGTVVSTDDRNWELKYQALYTRFNQSRAIAIDMESATIAANGFRLRVPYGTLLCVSDKPLHGELKLRGMANLFYRQRVSQHLAIGMEAVRLLRENGVETLHSRKLRSFDEPAFR | soluble
